The supplement of paper PMC9112550, “Optimization of the antimicrobial peptide Bac7 by deep mutational scanning” (BMC Biology, 2022)

tested on: Escherichia coli TOP10; assay: shrunken log2 fold change of peptide-encoding DNA abundance (4.5 h post-induction vs induction); higher = less antimicrobial activity (less host growth inhibition); conditions: time post-induction: 4.5 h; library: site-saturation at positions 5, 18, 19, 20
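Note: peptides expressed intracellularly from a pBAD plasmid library in pooled LB shake-flask culture, induced with 0.3% L-arabinose, DNA abundance read by NGS, three biological replicates, DESeq2 with apeglm shrinkage.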

| Sequence | shrunken log2 fold change |
| --- | --- |
| RRIRIRPPRLPRPRPRPCVQPRP | 1.47 |
| RRIRFRPPRLPRPRPRPSWNPRP | -0.575 |
| RRIRRRPPRLPRPRPRPYCEPRP | -0.102 |
| RRIRRRPPRLPRPRPRPWYWPRP | -0.039 |
| RRIRRRPPRLPRPRPRPQDFPRP | -0.078 |
| RRIRIRPPRLPRPRPRPQPYPRP | -0.84 |
| RRIRARPPRLPRPRPRPMRRPRP | 0.2 |
| RRIRHRPPRLPRPRPRPSQIPRP | -0.0599 |
| RRIRYRPPRLPRPRPRPWRIPRP | -0.297 |
| RRIRERPPRLPRPRPRPGYWPRP | -0.0572 |
| RRIRQRPPRLPRPRPRPCLDPRP | -0.0986 |
| RRIRCRPPRLPRPRPRPCAPPRP | -0.00137 |
| RRIRWRPPRLPRPRPRPEMFPRP | 0.274 |
| RRIRYRPPRLPRPRPRPHHNPRP | -1.28 |
| RRIRTRPPRLPRPRPRPRMVPRP | 0.0186 |
| RRIRTRPPRLPRPRPRPLIQPRP | -0.197 |
| RRIRLRPPRLPRPRPRPNFDPRP | 0.0771 |
| RRIRDRPPRLPRPRPRPHAEPRP | 0.0887 |
| RRIRRRPPRLPRPRPRPLAVPRP | 0.176 |
| RRIRGRPPRLPRPRPRPKSMPRP | 0.366 |
| RRIRMRPPRLPRPRPRPEVWPRP | 1.13 |
| RRIRRRPPRLPRPRPRPWWLPRP | -0.00877 |

| Sequence | shrunken log2 fold change |
| --- | --- |
| RRIRSRPPRLPRPRPRPRFWPRP | 0.269 |
| RRIRCRPPRLPRPRPRPKNVPRP | -0.258 |
| RRIRVRPPRLPRPRPRPKCVPRP | -0.0921 |
| RRIRNRPPRLPRPRPRPAHPPRP | 0.307 |
| RRIRDRPPRLPRPRPRPLDAPRP | 0.0602 |
| RRIRCRPPRLPRPRPRPFAFPRP | -0.169 |
| RRIRHRPPRLPRPRPRPSTQPRP | -0.0473 |
| RRIRTRPPRLPRPRPRPLNNPRP | -0.135 |
| RRIRGRPPRLPRPRPRPAKAPRP | 0.233 |
| RRIRNRPPRLPRPRPRPQHMPRP | -0.605 |
| RRIRVRPPRLPRPRPRPNCDPRP | -0.356 |
| RRIRDRPPRLPRPRPRPCICPRP | 0.159 |
| RRIRVRPPRLPRPRPRPDNWPRP | -0.343 |
| RRIRWRPPRLPRPRPRPISMPRP | -0.209 |
| RRIRGRPPRLPRPRPRPTDDPRP | 1.01 |
| RRIRLRPPRLPRPRPRPKEWPRP | 0.157 |
| RRIRQRPPRLPRPRPRPIQSPRP | 0.0147 |
| RRIRTRPPRLPRPRPRPHKHPRP | -0.417 |
| RRIRFRPPRLPRPRPRPNCCPRP | 0.0101 |
| RRIRLRPPRLPRPRPRPPHGPRP | 0.223 |
| RRIRPRPPRLPRPRPRPVRCPRP | 0.545 |
| RRIRMRPPRLPRPRPRPYSIPRP | -0.0122 |

| Sequence | shrunken log2 fold change |
| --- | --- |
| RRIRHRPPRLPRPRPRPAEFPRP | 0.108 |
| RRIRTRPPRLPRPRPRPTYWPRP | -0.00518 |
| RRIRSRPPRLPRPRPRPLCKPRP | -0.137 |
| RRIRARPPRLPRPRPRPSACPRP | 0.359 |
| RRIRIRPPRLPRPRPRPAKHPRP | -0.476 |
| RRIRNRPPRLPRPRPRPLSHPRP | -0.596 |
| RRIRSRPPRLPRPRPRPEHNPRP | -0.0911 |
| RRIRGRPPRLPRPRPRPCYCPRP | -0.164 |
| RRIRQRPPRLPRPRPRPECFPRP | 0.398 |
| RRIRMRPPRLPRPRPRPAEAPRP | 0.917 |
| RRIRNRPPRLPRPRPRPLAHPRP | 0.212 |
| RRIRGRPPRLPRPRPRPMDGPRP | -0.0481 |
| RRIRHRPPRLPRPRPRPYYMPRP | -0.636 |
| RRIRCRPPRLPRPRPRPGMFPRP | -0.462 |
| RRIRARPPRLPRPRPRPTHMPRP | 0.156 |
| RRIRSRPPRLPRPRPRPETNPRP | -0.0626 |
| RRIRIRPPRLPRPRPRPSLQPRP | -0.331 |
| RRIRNRPPRLPRPRPRPQQPPRP | 0.0468 |
| RRIRFRPPRLPRPRPRPYLRPRP | -0.138 |
| RRIRERPPRLPRPRPRPKKWPRP | 2.71 |
| RRIRCRPPRLPRPRPRPIVGPRP | -0.477 |
| RRIRTRPPRLPRPRPRPIALPRP | -0.156 |

| Sequence | shrunken log2 fold change |
| --- | --- |
| RRIRRRPPRLPRPRPRPADFPRP | 0.115 |
| RRIRARPPRLPRPRPRPKIFPRP | -0.0226 |
| RRIRRRPPRLPRPRPRPVSNPRP | -0.111 |
| RRIRRRPPRLPRPRPRPTVYPRP | -0.135 |
| RRIRGRPPRLPRPRPRPPGYPRP | 0.737 |
| RRIRHRPPRLPRPRPRPMQSPRP | -0.215 |
| RRIRYRPPRLPRPRPRPSNGPRP | 0.015 |
| RRIRLRPPRLPRPRPRPVKRPRP | 0.0647 |
| RRIRPRPPRLPRPRPRPIKEPRP | -0.00478 |
| RRIRQRPPRLPRPRPRPKIHPRP | -0.558 |
| RRIRQRPPRLPRPRPRPWDKPRP | -0.153 |
| RRIRLRPPRLPRPRPRPQNTPRP | -0.42 |
| RRIRHRPPRLPRPRPRPSHQPRP | -0.178 |
| RRIRPRPPRLPRPRPRPSVRPRP | 0.129 |
| RRIRTRPPRLPRPRPRPTVYPRP | -0.0364 |
| RRIRIRPPRLPRPRPRPPNLPRP | -0.188 |
| RRIRGRPPRLPRPRPRPIARPRP | 0.792 |
| RRIRGRPPRLPRPRPRPEQMPRP | 0.152 |
| RRIRLRPPRLPRPRPRPGDQPRP | 0.0619 |
| RRIRSRPPRLPRPRPRPTRVPRP | 0.872 |
| RRIRTRPPRLPRPRPRPMDEPRP | -0.219 |
| RRIRPRPPRLPRPRPRPSLIPRP | -0.181 |

| Sequence | shrunken log2 fold change |
| --- | --- |
| RRIRARPPRLPRPRPRPLMMPRP | 0.205 |
| RRIRYRPPRLPRPRPRPRLSPRP | -0.0417 |
| RRIRCRPPRLPRPRPRPQNAPRP | -0.372 |
| RRIRARPPRLPRPRPRPHSWPRP | 0.475 |
| RRIRHRPPRLPRPRPRPRMCPRP | -0.0257 |
| RRIRERPPRLPRPRPRPIPSPRP | -0.109 |
| RRIRWRPPRLPRPRPRPSLAPRP | 0.428 |
| RRIRWRPPRLPRPRPRPKVDPRP | 0.0401 |
| RRIRERPPRLPRPRPRPMTTPRP | -0.023 |
| RRIRQRPPRLPRPRPRPNHFPRP | 0.189 |
| RRIRSRPPRLPRPRPRPCRYPRP | -0.424 |
| RRIRRRPPRLPRPRPRPKDKPRP | 0.239 |
| RRIRLRPPRLPRPRPRPGFAPRP | 0.36 |
| RRIRNRPPRLPRPRPRPLEPPRP | 0.0692 |
| RRIRYRPPRLPRPRPRPVKSPRP | -0.84 |
| RRIRDRPPRLPRPRPRPNLLPRP | -0.0507 |
| RRIRSRPPRLPRPRPRPQPIPRP | 0.000168 |
| RRIRIRPPRLPRPRPRPRFNPRP | -0.173 |
| RRIRMRPPRLPRPRPRPEQPPRP | 0.395 |
| RRIRARPPRLPRPRPRPDMDPRP | 0.3 |
| RRIRMRPPRLPRPRPRPQSHPRP | 0.083 |
